The assay concerns the target CD16a on NK cells of cynomolgus monkey peripheral blood (cynomolgus monkey (endogenous on NK cells of peripheral blood)) (UniProt Q8SPW2). Briefly: flow cytometry on cells; cynomolgus monkeys given HpmAb1/D1632 (0.5-20 mg/kg s.c., day 0) or IVIG (1 g/kg i.v., days 0 and 1) and anti-platelet antibody on day 1; blood NK cells (CD45+CD14-CD159a+) stained with Fc-competing anti-CD16 3G8 (unoccupied CD16a) and non-competing DJ130c (all CD16a); free ratio and receptor occupancy (RO) against baseline (day 0). (In flow cytometry, cells or beads pass a laser one at a time.)
UniProt Q8SPW2, sequence (Q8SPW2 17-254): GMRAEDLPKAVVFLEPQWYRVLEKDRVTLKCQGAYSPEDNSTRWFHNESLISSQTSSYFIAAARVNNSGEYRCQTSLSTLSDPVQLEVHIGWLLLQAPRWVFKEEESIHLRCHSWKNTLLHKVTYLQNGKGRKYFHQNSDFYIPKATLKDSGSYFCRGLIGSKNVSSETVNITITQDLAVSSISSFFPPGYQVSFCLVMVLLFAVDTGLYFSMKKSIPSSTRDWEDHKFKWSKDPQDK

“Intravenous immunoglobulin (IVIG) (antibody)”: the free ratio (unoccupied CD16a on NK cells, % of baseline) on day 1 is 40.3%.

The values are drawn from publication PMC9993454.
